Results from publication PMC12785156.

Target: T1, hydroxylated His-AtHPPD (under oxidative stress, H2O2) (Arabidopsis thaliana), P93836
T1 chain: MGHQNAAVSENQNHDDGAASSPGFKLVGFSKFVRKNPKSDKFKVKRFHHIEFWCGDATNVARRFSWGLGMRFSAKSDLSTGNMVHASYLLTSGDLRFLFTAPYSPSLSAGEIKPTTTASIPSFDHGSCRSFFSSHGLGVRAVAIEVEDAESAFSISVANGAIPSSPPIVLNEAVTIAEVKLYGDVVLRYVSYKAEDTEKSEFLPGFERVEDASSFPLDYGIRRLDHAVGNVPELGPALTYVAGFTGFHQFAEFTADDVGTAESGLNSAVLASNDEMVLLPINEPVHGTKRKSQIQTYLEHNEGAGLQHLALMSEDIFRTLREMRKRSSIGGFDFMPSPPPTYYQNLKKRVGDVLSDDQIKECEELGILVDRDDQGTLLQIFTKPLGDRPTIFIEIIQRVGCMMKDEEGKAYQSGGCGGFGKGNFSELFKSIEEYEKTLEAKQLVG
Experiment: MST; as the MST of untreated His-AtHPPD, but AtHPPD under oxidative stress (H2O2, concentration not stated); GST-PUB11-ARM serially diluted; 25°C; 20 mM HEPES pH 8.0, 100 mM NaCl

Kd: 2.93 µM
B1: GST-PUB11-ARM (domain or fragment)
chain: QPAGYINGRTKNSGDMSVIRALVQRLSSRSTEDRRNAVSEIRSLSKRSTDNRILIAEAGAIPVLVNLLTSEDVATQENAITCVLNLSIYENNKELIMFAGAVTSIVQVLRAGTMEARENAAATLFSLSLADENKIIIGGSGAIPALVDLLENGTPRGKKDAATALFNLCIYHGNKGRAVRAGIVTALVKMLSDSTRHRMVDEALTILSVLANNQDAKSAIVKANTLPALIGILQTDQTRNRENAAAILLSLCKRDTEKLITIGRLGAVVPLMDLSKNGTERGKRKAISLLELLRKACQ
modifications: not checked
